The values that follow come from US20060115897A1.

One experiment concerns the target C3b (UniProt P01024). Kind of experiment: cell-based or functional assay.
The next experiment addresses C4b (UniProt P0C0L4). Nature of the experiment: cell-based or functional assay.

Sequence of C3b (P01024 749-1663 limits assumed, chain 1 of 2): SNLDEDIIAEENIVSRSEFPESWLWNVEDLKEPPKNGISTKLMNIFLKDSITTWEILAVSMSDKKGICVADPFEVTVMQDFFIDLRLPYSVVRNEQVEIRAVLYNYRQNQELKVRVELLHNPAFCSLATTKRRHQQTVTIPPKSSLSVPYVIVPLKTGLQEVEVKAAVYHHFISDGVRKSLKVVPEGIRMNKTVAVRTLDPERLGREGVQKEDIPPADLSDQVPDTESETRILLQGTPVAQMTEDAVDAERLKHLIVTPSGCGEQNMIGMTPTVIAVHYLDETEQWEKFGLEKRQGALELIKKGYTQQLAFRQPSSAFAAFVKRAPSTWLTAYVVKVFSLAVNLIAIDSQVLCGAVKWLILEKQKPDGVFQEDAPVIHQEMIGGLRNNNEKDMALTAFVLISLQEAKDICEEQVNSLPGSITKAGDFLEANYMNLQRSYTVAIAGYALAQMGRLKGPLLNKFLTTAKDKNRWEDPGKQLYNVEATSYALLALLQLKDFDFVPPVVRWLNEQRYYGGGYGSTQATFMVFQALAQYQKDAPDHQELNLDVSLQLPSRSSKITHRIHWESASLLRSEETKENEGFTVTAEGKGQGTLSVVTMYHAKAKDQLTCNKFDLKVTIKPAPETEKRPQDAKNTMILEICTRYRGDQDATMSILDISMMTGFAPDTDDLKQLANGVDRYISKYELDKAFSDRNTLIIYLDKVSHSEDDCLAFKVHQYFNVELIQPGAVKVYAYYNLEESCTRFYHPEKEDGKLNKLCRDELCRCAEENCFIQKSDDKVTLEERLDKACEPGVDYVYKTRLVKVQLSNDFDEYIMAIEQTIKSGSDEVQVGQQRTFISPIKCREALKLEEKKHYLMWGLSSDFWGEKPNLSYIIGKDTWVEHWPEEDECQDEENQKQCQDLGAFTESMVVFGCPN
Sequence of C3b (P01024 23-667 limits assumed, chain 2 of 2): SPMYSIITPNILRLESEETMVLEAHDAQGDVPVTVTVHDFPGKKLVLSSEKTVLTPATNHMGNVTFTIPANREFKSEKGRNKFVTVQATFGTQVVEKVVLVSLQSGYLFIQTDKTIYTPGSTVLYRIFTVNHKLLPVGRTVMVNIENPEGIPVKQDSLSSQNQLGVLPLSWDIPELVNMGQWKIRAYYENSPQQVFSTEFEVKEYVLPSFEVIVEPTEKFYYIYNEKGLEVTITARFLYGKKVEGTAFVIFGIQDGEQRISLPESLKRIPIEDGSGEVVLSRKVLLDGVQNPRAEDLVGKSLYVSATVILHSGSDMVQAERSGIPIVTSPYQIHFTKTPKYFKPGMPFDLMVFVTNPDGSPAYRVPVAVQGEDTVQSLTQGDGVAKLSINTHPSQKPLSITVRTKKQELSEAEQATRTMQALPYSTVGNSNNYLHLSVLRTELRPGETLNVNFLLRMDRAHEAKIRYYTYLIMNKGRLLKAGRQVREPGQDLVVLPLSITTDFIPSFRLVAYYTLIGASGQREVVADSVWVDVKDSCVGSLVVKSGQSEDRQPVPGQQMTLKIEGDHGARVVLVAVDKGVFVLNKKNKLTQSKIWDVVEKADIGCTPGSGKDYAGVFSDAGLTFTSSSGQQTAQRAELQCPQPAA
Sequence of C4b (P0C0L4 20-1744): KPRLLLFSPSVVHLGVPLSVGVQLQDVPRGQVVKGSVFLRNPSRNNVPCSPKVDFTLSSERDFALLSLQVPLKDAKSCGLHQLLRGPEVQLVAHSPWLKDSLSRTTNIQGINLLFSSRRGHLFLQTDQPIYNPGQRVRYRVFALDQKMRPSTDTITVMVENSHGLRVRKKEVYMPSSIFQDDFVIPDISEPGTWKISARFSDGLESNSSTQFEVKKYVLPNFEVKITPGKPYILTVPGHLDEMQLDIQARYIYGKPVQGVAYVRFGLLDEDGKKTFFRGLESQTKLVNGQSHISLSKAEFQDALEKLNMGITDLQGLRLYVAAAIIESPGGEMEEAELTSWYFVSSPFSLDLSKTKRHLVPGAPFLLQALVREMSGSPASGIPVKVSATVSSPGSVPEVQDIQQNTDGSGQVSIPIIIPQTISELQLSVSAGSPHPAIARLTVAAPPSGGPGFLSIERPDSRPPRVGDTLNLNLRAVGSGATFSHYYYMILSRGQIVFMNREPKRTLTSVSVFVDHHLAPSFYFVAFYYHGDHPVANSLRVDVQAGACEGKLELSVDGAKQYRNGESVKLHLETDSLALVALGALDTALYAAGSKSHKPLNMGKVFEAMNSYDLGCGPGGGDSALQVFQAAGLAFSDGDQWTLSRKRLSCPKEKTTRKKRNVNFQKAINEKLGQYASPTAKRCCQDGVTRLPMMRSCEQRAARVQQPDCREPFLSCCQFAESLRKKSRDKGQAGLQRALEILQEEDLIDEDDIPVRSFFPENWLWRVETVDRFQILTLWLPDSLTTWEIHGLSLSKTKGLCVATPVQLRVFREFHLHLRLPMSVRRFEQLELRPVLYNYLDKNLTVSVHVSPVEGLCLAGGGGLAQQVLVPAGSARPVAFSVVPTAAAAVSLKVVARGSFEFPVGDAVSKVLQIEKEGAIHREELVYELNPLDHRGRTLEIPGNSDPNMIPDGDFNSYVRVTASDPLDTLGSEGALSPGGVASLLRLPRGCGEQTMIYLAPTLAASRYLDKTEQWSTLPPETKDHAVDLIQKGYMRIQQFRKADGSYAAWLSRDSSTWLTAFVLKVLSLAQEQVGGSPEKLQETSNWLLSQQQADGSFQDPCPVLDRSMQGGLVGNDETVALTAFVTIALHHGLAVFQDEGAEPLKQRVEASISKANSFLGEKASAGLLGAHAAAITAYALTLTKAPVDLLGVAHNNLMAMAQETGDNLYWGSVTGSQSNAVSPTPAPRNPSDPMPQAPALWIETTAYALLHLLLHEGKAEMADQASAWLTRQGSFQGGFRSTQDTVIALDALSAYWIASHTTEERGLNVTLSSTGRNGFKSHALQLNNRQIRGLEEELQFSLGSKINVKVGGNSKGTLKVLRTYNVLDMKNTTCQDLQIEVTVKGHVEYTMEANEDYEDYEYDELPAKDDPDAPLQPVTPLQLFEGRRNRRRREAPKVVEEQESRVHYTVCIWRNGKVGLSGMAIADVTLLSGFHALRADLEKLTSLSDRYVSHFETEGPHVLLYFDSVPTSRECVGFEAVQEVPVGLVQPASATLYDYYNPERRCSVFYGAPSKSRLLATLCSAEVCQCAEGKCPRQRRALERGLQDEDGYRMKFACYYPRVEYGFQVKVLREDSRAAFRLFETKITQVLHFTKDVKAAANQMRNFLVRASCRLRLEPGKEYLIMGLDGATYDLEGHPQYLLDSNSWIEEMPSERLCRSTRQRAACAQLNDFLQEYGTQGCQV

Substance “histidine-tagged Smallpox Inhibitor of Complement Enzymes (SPICEhis) (from UniProt P68638 20-263)” registered an efficiency as cofactor in the degradation of C3b, against VCPhis with C3b of 100 fold. In the experiment with C4b, this substance gave a speed as cofactor in the degradation of C4b, against VCPhis of 6 fold.
